From US20220041658A1 (PROTAGONIST THERAPEUTICS, published 2022)
Starred links: 1 amine or outer side, 2 acyl side, 3 side chain; linkers in the order of their positions; H or OH if unused. Positions of bridges follow the written chain, without caps; N, C: chain ends. Non-standard residues stand in square brackets, D forms with d. Trp(6-Et) = 6-ethyl-tryptophan, CCc1ccc2c(C[C@H](N[*:1])C(=O)[*:2])c[nH]c2c1; Trp(7-OMe) = COc1cccc2c(C[C@H](N)C(=O)O)c[nH]c12; Trp(7-Me) = Cc1cccc2c(C[C@H](N)C(=O)O)c[nH]c12; Trp(1-Me) = Cn1cc(C[C@H](N)C(=O)O)c2ccccc21; 2Nal = N[C@@H](Cc1ccc2ccccc2c1)C(=O)O; AEF = NCCOc1ccc(C[C@H](N)C(=O)O)cc1; Cit = NC(=O)NCCC[C@H](N)C(=O)O; Pen = CC(C)(S)[C@H](N)C(=O)O; hLeu = CC(C)CC[C@H](N)C(=O)O; αMeK = C[C@](N)(CCCCN)C(=O)O; Abu = CC[C@H](N)C(=O)O; Aib = CC(C)(N)C(=O)O; βAla = NCCC(=O)O

T1: interleukin-23 receptor (IL-23R) (human, UniProt Q5VWK5 24-629)
T1 sequence (looked up): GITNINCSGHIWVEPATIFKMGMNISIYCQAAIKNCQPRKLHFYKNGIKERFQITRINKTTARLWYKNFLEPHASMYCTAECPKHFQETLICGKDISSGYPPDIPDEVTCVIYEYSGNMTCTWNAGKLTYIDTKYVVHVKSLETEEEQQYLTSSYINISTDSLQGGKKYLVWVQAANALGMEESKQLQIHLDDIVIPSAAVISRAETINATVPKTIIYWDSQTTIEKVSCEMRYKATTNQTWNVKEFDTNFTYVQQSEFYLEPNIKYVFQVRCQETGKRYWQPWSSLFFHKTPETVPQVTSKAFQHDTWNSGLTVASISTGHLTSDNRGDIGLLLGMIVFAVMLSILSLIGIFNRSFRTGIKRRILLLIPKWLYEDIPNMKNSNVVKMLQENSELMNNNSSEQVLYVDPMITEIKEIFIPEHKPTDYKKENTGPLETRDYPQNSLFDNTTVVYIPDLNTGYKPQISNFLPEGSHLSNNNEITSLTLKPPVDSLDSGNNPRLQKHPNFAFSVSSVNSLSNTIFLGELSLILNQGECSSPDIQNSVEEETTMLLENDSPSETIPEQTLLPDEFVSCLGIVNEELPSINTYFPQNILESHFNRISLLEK


Key:
[1] = target: T1, interleukin-23 receptor (IL-23R); assay: cell-based or functional assay
[2] = target: T1, interleukin-23 receptor (IL-23R); assay: cell-based or functional assay; remark: listed apart in the source

| pStat3 HTRF IC50 [1] | NK Cell Assay IC50 [2] | Binder |
| --- | --- | --- |
| 1.37 nM |  | XNTXQXXXXENX (Ac-[Pen]-N-T-[W(7-Me)]-Q-[Pen]-Phe[4-(2-aminoethoxy)]-[2-Nal]-[a-MeLys]-E-N-[bA]-NH2; Pen-Pen disulfide) [Peptide of SEQ ID NO: 282] |
| 0.927 nM | 3.5 nM | XNTXKXXXXKSK (Ac-[Pen]-N-T-[W(7-Me)]-[Lys(Ac)]-[Pen]-Phe[4-(2-aminoethoxy)]-[2-Nal]-[a-MeLys]-[Lys(Ac)]-S-[(D)Lys]-NH2; Pen-Pen disulfide) [Peptide of SEQ ID NO: 352] |
| 35.5 nM | 60 nM | XNTXQXXXXKFX (Ac-[Pen]-NT-[W(7-Me)]-Q-[Pen]-Phe[4-(2-aminoethoxy)]-[2-Nal]-[a-MeLeu]-[Lys(Ac)]-[(D)Phe]-[bA]-NH2; Pen-Pen disulfide) [Peptide of SEQ ID NO: 213] |
| 128 nM |  | Ac-[Pen]NT[Trp(7-Me)]K(Ac)[Pen][His_Bzl][2Nal][αMeK]K(Ac)N[dL]-NH2 (disulfide 1-6 (inferred)) [Peptide of SEQ ID NO: 292] |
| 0.456 nM | 5.34 nM | XNTXKXXXXXNL (Ac-[Pen]-N-T-[W(7-Me)]-[Lys(Ac)]-[Pen]-Phe[4-(2-aminoethoxy)]-[2-Nal]-[a-MeLys]-[Lys(Ala)]-N-[(D)Leu]-NH2; Pen-Pen disulfide) [Peptide of SEQ ID NO: 355] |
| 0.331 nM | 3.8 nM | XNTXKXXXXXNL (not fully specified; Ac-[Pen]-N-T-[W(7-Me)]-[Lys(Ac)]-[Pen]-Phe[4-(2-aminoethoxy)]-[2-Nal]-[a-MeLys]-[Lys(cyclohexyl)]-N-[(D)Leu]-NH2; Pen-Pen disulfide) [Peptide of SEQ ID NO: 357] |
| 4.52 nM |  | Ac-[Pen]NT[Trp(7-Me)]Q[Pen][AEF][Trp(1-Me)][αMeK]K(Ac)N[βAla]-NH2 (disulfide 1-6) [Peptide of SEQ ID NO: 283] |
| 224 nM |  | Ac-[Pen]NT[Trp(7-Me)]K(Ac)[Pen][His_Bzl][2Nal][αMeK]K(Ac)N[dL]-NH2 (disulfide 1-6 (inferred)) [Peptide of SEQ ID NO: 293] |
| > 1 µM |  | Ac-[Pen]NT[Trp(7-OMe)][Cit][Pen][AEF][2Nal][αMeK]K(Ac)N[dK]-NH2 (disulfide 1-6 (inferred)) [Peptide of SEQ ID NO: 300] |
| 0.639 nM |  | XNTXQXXXXKNX (Ac-[Pen]-N-T-[W(7-Me)]-Q-[Pen]-Phe[4-(2-aminoethoxy)]-[2-Nal]-[Acbc]-[Lys(Ac)]-N-[bA]-NH2; Pen-Pen disulfide) [Peptide of SEQ ID NO: 277] |
| 5.6 nM |  | XNTXXXXXXKNL (not fully specified; Ac-[Pen]-N-T-[W(7-Me)]-[Lys(cyclohexyl)]-[Pen]-Phe[4-(2-aminoethoxy)]-[2-Nal]-[a-MeLys]-[Lys(Ac)]-N-[(D)Leu]-NH2; Pen-Pen disulfide) [Peptide of SEQ ID NO: 316] |
| 2.17 nM |  | XNTXQXXXXKNX (Ac-[Pen]-N-T-[W(7-Me)]-Q-[Pen]-Phe[4-(2-aminoethoxy)]-[2-Nal]-[Spiral_Pip]-[Lys(Ac)]-N-[bA]-NH2; Pen-Pen disulfide) [Peptide of SEQ ID NO: 275] |
| 0.322 nM | 2.1 nM | Ac-[Pen]NT[Trp(7-Me)][Cit][Pen][AEF][2Nal][αMeK]K(Ac)N[Aib][βAla]-NH2 (disulfide 1-6 (inferred)) [Peptide of SEQ ID NO: 340] |
| 1.04 nM |  | XNTXQXXXXKNK (Ac-[Pen]-N-T-[W(7-OMe)]-Q-[Pen]-Phe[4-(2-aminoethoxy)]-[2-Nal]-[a-MeLys]-[Lys(Ac)]-N-[(D)Lys]-NH2; Pen-Pen disulfide) [Peptide of SEQ ID NO: 297] |
| 0.632 nM | 3.35 nM | XNTXXXXXXKNL (Ac-[Pen]-N-T-[W(7-Me)]-[Lys(Gly)]-[Pen]-Phe[4-(2-aminoethoxy)]-[2-Nal]-[a-MeLys]-[Lys(Ac)]-N-[(D)Leu]-NH2; Pen-Pen disulfide) [Peptide of SEQ ID NO: 320] |
| 27 nM | 9.35 nM | Ac-[dR][Abu]QT[Trp(7-Me)]K(Ac)C[AEF][2Nal][αMeK]K(Ac)N[dK]-NH2 (thioether 2-7 (inferred)) [Peptide of SEQ ID NO: 324] |
| 2.86 nM |  | XNTXKXXXXKNK (Ac-[Pen]-N-T-[W(7-OMe)]-[Lys(Ac)]-[Pen]-Phe[4-(2-aminoethoxy)]-[2-Nal]-[a-MeLys]-[Lys(Ac)]-N-[(D)Lys]-NH2; Pen-Pen disulfide) [Peptide of SEQ ID NO: 299] |
| 0.779 nM | 11.1 nM | Ac-[Pen][hLeu]T[Trp(7-Me)]K(Ac)[Pen][AEF][2Nal][αMeK]K(Ac)N[dL]-NH2 (disulfide 1-6 (inferred)) [Peptide of SEQ ID NO: 337] |
| 17.1 nM |  | Ac-[Pen]NTX[Cit][Pen][AEF][2Nal][αMeK]K(Ac)[βAla][βAla]-NH2 (disulfide 1-6; not fully specified (residue 4); printed as Ac-[Pen]-N-T-[W(1-Me)]-[Cit]-[Pen]-Phe[4-(2-aminoethoxy)]-[2-Nal]-[a-MeLys]-[Lys(Ac)]-[bA]-[bA]-NH2, Pen-Pen disulfide) [Peptide of SEQ ID NO: 280] |
| 12.7 nM | 45.5 nM | Ac-[Pen]NT[Trp(6-Et)]K(Ac)[Pen][AEF][2Nal][αMeK]K(Ac)N[dK]-NH2 (disulfide 1-6 (inferred)) [Peptide of SEQ ID NO: 349] |
| 6.29 nM |  | XNTXQXXXXKNK (Ac-[Pen]-N-T-[W(5-CN)]-Q-[Pen]-Phe[4-(2-aminoethoxy)]-[2-Nal]-[a-MeLys]-[Lys(Ac)]-N-[(D)Lys]-NH2; Pen-Pen disulfide) [Peptide of SEQ ID NO: 296] |
